Legend:
[1] = target: GFP–WRN ΔX (deleted XLF-like motif) (human) (UniProt Q14191); assay: co-IP; GFP-tagged proteins recovered on GFP-TRAP beads from transfected HEK293T extract (25 mM Tris-HCl pH 7.5, 150 mM NaCl, 10% glycerol, 0.5% Triton X-100, 1 mM DTT), 1 h at 4 °C; immunoblot for GFP, Ku80 and DNA–PKcs; Ku quantified by ImageJ relative to wild-type WRN
Ku (Homo sapiens) = Ku (Homo sapiens) (UniProt P12956); conditions: cited from earlier work
Sequence of Ku (Homo sapiens) (P12956 2-609, chain 1 of 2): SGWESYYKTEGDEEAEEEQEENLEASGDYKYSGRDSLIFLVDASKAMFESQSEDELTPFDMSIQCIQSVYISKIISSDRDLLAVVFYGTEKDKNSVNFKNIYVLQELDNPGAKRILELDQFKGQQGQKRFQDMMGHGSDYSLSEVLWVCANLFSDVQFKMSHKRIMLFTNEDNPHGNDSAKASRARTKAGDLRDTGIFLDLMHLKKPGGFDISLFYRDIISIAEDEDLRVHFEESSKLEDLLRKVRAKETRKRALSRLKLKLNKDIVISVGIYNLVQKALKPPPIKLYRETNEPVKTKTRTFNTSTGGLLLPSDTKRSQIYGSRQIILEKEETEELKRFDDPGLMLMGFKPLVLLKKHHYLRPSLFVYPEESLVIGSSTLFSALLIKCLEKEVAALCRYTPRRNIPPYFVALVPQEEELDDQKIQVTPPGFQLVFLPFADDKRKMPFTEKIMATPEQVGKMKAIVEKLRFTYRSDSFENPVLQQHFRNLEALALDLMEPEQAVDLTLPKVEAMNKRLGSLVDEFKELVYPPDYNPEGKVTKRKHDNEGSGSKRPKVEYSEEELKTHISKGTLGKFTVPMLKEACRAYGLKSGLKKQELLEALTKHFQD
Sequence of Ku (Homo sapiens) (P13010 2-732, chain 2 of 2, further chain): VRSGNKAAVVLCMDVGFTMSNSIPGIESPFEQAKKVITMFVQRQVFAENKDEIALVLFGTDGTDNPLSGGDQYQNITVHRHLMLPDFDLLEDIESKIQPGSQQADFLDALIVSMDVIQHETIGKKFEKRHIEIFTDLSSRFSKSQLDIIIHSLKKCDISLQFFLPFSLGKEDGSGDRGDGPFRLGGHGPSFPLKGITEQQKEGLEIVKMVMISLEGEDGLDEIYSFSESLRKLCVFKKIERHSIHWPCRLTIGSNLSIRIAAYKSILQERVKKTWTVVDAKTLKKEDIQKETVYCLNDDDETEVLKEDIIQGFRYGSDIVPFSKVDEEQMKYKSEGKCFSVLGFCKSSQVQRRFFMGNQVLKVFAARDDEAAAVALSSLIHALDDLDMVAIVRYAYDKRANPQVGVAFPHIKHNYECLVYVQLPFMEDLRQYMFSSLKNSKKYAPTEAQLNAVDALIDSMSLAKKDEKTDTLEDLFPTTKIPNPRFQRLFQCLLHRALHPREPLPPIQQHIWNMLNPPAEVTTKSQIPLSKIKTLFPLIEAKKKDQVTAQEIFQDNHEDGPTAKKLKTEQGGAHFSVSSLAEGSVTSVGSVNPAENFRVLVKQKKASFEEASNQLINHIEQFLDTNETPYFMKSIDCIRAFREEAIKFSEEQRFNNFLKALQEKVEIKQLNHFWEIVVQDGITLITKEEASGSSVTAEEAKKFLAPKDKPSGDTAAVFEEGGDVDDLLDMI

Sequence of GFP–WRN ΔX (deleted XLF-like motif) (human) (Q14191 whole entry, stated change not applied): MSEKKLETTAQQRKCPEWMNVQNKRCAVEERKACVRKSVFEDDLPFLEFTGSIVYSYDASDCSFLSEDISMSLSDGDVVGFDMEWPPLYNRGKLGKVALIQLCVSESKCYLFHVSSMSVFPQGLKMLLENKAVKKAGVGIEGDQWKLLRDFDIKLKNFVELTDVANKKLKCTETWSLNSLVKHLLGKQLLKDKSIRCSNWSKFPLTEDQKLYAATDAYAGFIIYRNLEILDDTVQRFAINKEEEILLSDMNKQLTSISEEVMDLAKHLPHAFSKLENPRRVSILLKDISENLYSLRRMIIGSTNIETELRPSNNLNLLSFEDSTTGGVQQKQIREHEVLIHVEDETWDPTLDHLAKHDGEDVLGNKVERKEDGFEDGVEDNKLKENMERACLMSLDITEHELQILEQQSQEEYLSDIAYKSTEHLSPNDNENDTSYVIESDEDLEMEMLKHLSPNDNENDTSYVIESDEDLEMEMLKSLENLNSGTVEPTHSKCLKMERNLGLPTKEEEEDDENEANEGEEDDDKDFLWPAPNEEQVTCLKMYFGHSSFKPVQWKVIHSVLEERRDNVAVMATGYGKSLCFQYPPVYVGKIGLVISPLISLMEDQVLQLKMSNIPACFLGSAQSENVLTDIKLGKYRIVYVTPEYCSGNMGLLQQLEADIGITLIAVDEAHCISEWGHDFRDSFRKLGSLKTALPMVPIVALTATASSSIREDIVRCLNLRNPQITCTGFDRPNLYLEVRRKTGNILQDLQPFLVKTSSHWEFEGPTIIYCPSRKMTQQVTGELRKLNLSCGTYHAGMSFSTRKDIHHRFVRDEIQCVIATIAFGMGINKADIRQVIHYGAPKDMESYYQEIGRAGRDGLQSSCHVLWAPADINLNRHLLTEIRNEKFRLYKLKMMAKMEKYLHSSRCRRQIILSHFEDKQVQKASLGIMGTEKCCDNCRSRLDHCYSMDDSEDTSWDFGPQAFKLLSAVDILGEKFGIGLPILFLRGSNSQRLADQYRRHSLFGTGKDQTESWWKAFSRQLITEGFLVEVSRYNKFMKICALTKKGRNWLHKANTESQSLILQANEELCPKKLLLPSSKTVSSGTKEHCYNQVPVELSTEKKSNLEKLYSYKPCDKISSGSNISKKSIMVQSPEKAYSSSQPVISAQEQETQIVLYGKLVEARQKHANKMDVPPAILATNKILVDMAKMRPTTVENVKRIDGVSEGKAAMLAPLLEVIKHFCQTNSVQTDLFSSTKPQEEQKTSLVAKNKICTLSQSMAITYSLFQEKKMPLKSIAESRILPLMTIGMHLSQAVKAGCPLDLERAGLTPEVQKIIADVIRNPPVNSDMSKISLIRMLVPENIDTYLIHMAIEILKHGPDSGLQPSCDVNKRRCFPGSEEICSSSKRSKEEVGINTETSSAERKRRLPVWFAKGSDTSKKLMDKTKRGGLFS
Sequence of Ku80, endogenous (P13010 whole entry): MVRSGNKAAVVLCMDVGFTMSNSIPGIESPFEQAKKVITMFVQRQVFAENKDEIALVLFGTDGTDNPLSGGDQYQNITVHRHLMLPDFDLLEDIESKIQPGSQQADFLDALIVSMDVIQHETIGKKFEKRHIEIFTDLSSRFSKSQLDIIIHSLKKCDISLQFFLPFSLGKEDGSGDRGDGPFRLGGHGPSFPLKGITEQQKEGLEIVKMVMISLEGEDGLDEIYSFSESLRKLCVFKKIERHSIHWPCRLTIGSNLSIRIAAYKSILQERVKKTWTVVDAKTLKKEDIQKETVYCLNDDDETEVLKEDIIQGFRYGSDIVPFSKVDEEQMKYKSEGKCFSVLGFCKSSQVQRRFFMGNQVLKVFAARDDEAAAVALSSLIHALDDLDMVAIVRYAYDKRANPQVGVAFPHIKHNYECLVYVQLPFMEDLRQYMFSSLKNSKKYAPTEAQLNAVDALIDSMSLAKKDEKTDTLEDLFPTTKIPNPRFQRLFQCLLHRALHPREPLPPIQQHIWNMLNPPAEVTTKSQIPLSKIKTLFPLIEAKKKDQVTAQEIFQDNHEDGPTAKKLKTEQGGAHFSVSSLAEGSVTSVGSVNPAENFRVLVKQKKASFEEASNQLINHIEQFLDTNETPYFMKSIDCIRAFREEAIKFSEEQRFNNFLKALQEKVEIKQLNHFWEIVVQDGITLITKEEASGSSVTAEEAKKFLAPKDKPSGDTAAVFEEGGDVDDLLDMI

| percent reduction of Ku co-precipitated, relative to wild-type GFP-WRN [1] | Substance | Kd (Ku (Homo sapiens)) |
| --- | --- | --- |
| 30% | Ku80, endogenous (from UniProt P13010 1-732) (natural protein) | – |
| – | APLF KBM (from UniProt Q8IW19) | 600 nM |
